Source: patent US20250042956A1 (University of California, published 2025)

T1: PIAL2-Myc (Arabidopsis thaliana, UniProt F4JYG0 1-760)
T1 construct: not shown: C-terminal 9XMYC tag and BLRP (pEG302 vector)
T1 sequence: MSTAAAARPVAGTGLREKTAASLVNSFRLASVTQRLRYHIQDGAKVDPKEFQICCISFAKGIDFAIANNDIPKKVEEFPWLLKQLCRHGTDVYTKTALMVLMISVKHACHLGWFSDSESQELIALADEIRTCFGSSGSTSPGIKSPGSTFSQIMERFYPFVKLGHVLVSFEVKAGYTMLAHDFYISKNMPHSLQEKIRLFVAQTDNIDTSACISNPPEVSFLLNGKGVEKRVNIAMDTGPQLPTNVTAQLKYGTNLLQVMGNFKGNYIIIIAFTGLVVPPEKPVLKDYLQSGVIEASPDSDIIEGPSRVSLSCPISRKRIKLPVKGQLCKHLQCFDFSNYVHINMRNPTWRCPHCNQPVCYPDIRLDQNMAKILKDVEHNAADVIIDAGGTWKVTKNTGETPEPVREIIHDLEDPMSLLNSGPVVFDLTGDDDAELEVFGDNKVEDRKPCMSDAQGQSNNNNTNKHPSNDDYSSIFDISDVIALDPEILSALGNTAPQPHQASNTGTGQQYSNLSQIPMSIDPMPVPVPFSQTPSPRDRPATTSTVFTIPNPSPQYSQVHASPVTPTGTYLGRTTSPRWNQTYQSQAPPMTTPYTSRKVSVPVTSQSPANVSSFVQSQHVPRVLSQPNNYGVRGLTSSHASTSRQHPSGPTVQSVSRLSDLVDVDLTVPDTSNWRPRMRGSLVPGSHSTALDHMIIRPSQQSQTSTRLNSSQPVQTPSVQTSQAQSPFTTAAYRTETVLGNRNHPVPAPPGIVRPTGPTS

T2: AT2G17540.2 TRBIP2 (Arabidopsis thaliana)
T2 construct: Endogenous protein found by mass spectrometry
T2 chain: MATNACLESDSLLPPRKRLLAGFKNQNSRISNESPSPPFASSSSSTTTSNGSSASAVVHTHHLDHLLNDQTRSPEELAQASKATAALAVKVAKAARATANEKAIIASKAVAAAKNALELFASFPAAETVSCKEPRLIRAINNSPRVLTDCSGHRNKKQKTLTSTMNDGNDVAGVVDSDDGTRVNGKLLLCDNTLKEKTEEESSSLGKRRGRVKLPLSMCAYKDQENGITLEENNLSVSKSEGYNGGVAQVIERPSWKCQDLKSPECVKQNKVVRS

T3: AT1G49950.3 TRB1 (Arabidopsis thaliana, UniProt Q8VWK4 1-300, limits assumed)
T3 construct: Endogenous protein found by mass spectrometry
T3 sequence: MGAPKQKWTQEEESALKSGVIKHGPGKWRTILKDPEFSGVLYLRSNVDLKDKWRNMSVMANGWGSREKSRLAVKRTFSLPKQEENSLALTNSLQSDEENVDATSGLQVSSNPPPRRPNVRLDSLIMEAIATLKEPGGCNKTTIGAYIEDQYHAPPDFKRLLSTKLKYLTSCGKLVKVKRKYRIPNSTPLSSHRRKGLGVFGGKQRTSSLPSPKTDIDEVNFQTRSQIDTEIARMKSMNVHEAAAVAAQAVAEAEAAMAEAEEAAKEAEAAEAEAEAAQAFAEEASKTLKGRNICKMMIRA

T4: AT3G49850.1 TRB3 (Arabidopsis thaliana, UniProt Q9M2X3 1-295)
T4 construct: Endogenous protein found by mass spectrometry
T4 sequence: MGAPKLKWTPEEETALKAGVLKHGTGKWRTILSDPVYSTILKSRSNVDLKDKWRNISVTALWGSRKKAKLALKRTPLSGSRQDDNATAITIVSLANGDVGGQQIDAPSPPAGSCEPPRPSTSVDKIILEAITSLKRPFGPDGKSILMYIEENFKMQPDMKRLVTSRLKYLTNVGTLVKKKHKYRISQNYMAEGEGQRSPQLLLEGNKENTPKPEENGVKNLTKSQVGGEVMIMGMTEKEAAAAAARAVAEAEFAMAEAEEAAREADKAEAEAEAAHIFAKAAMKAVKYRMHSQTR

T5: AT5G67580.1 TRB2 (Arabidopsis thaliana, UniProt Q9FJW5 1-299)
T5 construct: Endogenous protein found by mass spectrometry
T5 sequence: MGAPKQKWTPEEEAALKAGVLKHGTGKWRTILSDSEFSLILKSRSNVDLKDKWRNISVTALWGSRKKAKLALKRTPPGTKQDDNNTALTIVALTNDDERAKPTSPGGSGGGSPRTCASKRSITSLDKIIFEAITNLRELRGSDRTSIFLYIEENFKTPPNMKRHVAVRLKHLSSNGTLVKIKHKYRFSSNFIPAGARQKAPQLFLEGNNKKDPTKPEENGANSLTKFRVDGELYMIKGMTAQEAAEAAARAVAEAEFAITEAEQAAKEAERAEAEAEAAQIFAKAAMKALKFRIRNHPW

T6: AT3G10480.3 NAC050 (Arabidopsis thaliana, UniProt Q9SQX9 1-447, limits assumed)
T6 construct: Endogenous protein found by mass spectrometry
T6 sequence (looked up): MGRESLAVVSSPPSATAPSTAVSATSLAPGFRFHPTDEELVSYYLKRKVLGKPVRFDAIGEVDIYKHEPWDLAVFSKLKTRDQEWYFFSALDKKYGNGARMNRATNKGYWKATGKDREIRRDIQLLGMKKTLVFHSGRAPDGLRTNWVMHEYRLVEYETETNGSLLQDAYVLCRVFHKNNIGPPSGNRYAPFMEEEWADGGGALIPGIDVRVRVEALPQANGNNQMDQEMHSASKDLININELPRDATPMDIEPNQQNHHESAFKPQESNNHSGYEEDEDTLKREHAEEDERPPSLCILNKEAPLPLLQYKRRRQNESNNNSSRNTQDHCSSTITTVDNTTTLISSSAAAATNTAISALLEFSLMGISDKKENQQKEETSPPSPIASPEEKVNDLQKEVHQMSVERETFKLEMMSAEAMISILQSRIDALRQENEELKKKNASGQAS


Columns and labels:
PIAL2-Myc = molecular target: T1, PIAL2-Myc; assay: co-IP, anti-FLAG, crossed lines
Experimental: The Co-IP assays in this study were performed by following previous protocol (see e.g., Wang, Science, 2016) with some modifications. 2 grams of 2-week-old seedling tissue were collected from Arabidopsis transgenic lines: JMJ14-FLAG×TRB1-Myc and TRB1-Myc; MORC6-FLAG×PIAL2-Myc and PIAL2-Myc. The samples were ground into fine powder with liquid nitrogen, resuspended with 10 mL IP buffer, and incubate 20 minutes at 4° C. The lysate was centrifuged and filtered through Miracloth for two times, and the supernatant was incubated with 30 μL anti-FLAG M2 Affinity Gel (Millipore) for 2 hours at 4° C. The anti-FLAG beads were washed with IP buffer for a total of 5 times, and the protein was eluted with 40 μL elution buffer (IP buffer containing 100 μg/mL 3×FLAG peptide as final concentration). The supernatant was mixed with 5×SDS loading buffer and subject to Western blot.

AT2G17540.2 TRBIP2 [1] = molecular target: T2, AT2G17540.2 TRBIP2; assay: IP-MS rep 2
In short: (§1)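 Unopened floral buds (ten grams) from wild-type and FLAG-tagged transgenic Arabidopsis lines were ground in liquid nitrogen, homogenised in 25 mL IP buffer and passed through Miracloth. The lysates were mixed with 250 μL anti-FLAG M2 magnetic beads for 2 hours at 4° C, then washed and eluted in TBS containing 250 μg/mL 3×FLAG peptides. Peptide counts for co-purified proteins were obtained by mass spectrometry of the eluted proteins after trichloroacetic acid precipitation.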

AT1G49950.3 TRB1 [2] = molecular target: T3, AT1G49950.3 TRB1; assay: IP-MS rep 2
In short: as §1

AT3G49850.1 TRB3 [3] = molecular target: T4, AT3G49850.1 TRB3; assay: IP-MS rep 2
In short: as §1

AT5G08450.1 HDC1 [4] = molecular target: T7, AT5G08450.1 HDC1 (Arabidopsis thaliana); assay: IP-MS rep 2
T7 construct: Endogenous protein found by mass spectrometry
In short: as §1

AT5G67580.1 TRB2 [5] = molecular target: T5, AT5G67580.1 TRB2; assay: IP-MS rep 2
In short: as §1

AT3G10480.3 NAC050 [6] = molecular target: T6, AT3G10480.3 NAC050; assay: IP-MS rep 2
In short: as §1

AT2G17540.2 TRBIP2 [7] = molecular target: T2, AT2G17540.2 TRBIP2; assay: IP-MS rep 1
In short: as §1

AT1G49950.3 TRB1 [8] = molecular target: T3, AT1G49950.3 TRB1; assay: IP-MS rep 1
In short: as §1

AT3G49850.1 TRB3 [9] = molecular target: T4, AT3G49850.1 TRB3; assay: IP-MS rep 1
In short: as §1

AT5G08450.1 HDC1 [10] = molecular target: T7, AT5G08450.1 HDC1; assay: IP-MS rep 1
In short: as §1

AT5G67580.1 TRB2 [11] = molecular target: T5, AT5G67580.1 TRB2; assay: IP-MS rep 1
In short: as §1

AT3G10480.3 NAC050 [12] = molecular target: T6, AT3G10480.3 NAC050; assay: IP-MS rep 1
In short: as §1

binding result (PIAL2-Myc)	IP-MS count (AT2G17540.2 TRBIP2 [1])	IP-MS count (AT1G49950.3 TRB1 [2])	IP-MS count (AT3G49850.1 TRB3 [3])	IP-MS count (AT5G08450.1 HDC1 [4])	IP-MS count (AT5G67580.1 TRB2 [5])	IP-MS count (AT3G10480.3 NAC050 [6])	IP-MS count (AT2G17540.2 TRBIP2 [7])	IP-MS count (AT1G49950.3 TRB1 [8])	IP-MS count (AT3G49850.1 TRB3 [9])	IP-MS count (AT5G08450.1 HDC1 [10])	IP-MS count (AT5G67580.1 TRB2 [11])	IP-MS count (AT3G10480.3 NAC050 [12])	Binder
binds													MORC6-FLAG (other, Arabidopsis thaliana, UniProt Q56Y74 1-663, looked up, not shown: FLAG tag (3xFLAG-BLRP vector described)) MSHDRSVNVSHDAVIAKPERGTMLQSFSPRSHGSKGYSLPQDSEENRGSVGQSAGQSSTSVVDQVRSPADDAGVTSSSTICPAPVCRQFWKAGSYNDELSSKSQQPNGKNYLHVHPMFLHSNATSHKWAFGAVAELLDNAVDEIQNGATFVIVDKTTNPRDGATALLIQDDGGGMDPQAMRHCMGFGFSDKKSDSAIGRYGNGFKTSTMRLGADVIVFSRHSKNQTLTQSIGLLSYTYLTRTGHDRIVVPILDYEFNASAGEFKTLQDREHFISSLSILLEWSPFSTEAELLQQFDDVGPHGTKVIIYNMWLNSDAKLELDFDSVAEDILIEGSIKKTGSKIVNDHIASRFSYSLRVYLSILYLRIPETFKIILRGKVVEHHNVADDLMHPQYILYKPQAAGSEEALVVTTIGFLKEAPKVNLHGFCVYHKNRLIMPFWQVINYSSSRGRGVVGVLEANFVEPTHNKQDFEKTVLLQKLENRLKEMTVEYWSCHCVLIGYQVNKKPRLQIPQKVQPAGRQALSPPPGFQAVFPQGNTTSLPRVSTQPVLLEKRKEHPDSVASAALKRKVGNDDFTVPGHIRVEQFIHGSASQSQDIETVKLMEENKKLRAKCLDRKVRSQNLEVKAMNLRSELENYKSEYERLMVELQALDLVKDEHRRNVNT
	0	15	19	2	36	0	0	39	31	8	66	2	TRBIP1 (bait of the TRBIP1 IP-MS) (other, not shown: small tags and cut ends, tag and its position not described; also called TRBIP1-1; TRBIP1-2) METNPCDMNQLDSDSHLPPRKRLLAGFKKFNSNGINGSSPSDFASSSSTSNSNGSSSASTNVQTHLGNLLSSPFNNDQSPEELVEATRSAAALAVKAAKAARAIANEKALISAKAIAAAKRALELVDSFPKEAMADCKERSPRKNKQKKHVPVELLYSKGQLRDEEDDLARRLHRAIDNTSYPRVLRTSEENGQRYKKQKKNKSVVEGGSSSIIVTGSMKDIAGVVDSDSSYEGLEIARSNRDEADSMLMMEKSGEESNSLVKRRGRVKLKKLPLSICNSRNQENGTSSASPLPVAQPQEDGGAITVIAGSSSWKCQDIKAPECVKQNKAVRS
